Source: patent publication US20250042994A1 (HAINAN SIMCERE ZAIMING PHARMACEUTICAL, published 2025)
Changes are numbered by the printed parent chain. Values belong to the binder of their own block, whether it stands above or below them.

Legend:
Human CD19-his protein = target: T1, Human CD19-his protein (human, UniProt P15391 20-291); assay: SPR Biacore, Ab captured on Protein A, CD19-His analyte
T1 construct: bought protein; also called recombinant human CD19-His; CD19 full-length protein; not shown: His tag
T1 sequence (looked up): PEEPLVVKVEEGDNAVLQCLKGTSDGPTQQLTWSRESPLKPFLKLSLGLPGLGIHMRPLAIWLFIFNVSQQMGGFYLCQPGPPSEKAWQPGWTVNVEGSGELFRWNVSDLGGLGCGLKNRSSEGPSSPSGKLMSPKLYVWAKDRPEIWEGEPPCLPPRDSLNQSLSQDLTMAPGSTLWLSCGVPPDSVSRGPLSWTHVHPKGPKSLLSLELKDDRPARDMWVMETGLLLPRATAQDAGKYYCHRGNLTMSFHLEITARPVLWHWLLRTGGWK
Description: A sample buffer and a running buffer were HBS-EP+ (10 mM HEPES, 150 mM NaCl, 3 mM EDTA and 0.05% surfactant P20) (GE Healthcare; BR-1006-69). The flow-through cell was set to 25° C. The sample block was set to 16° C. Both were pretreated with the running buffer. In each cycle, an antibody to be detected was first captured with a Protein A chip, and then a single concentration of CD19 antigen protein was injected. The binding and dissociation processes of the antibody and the antigen protein were recorded, and finally Glycine pH 1.5 (GE Healthcare; BR-1003-54) was used to complete chip regeneration. The binding was measured by injecting different concentrations of recombinant human CD19-His proteins in a solution for 240 s with a flow rate of 30 μl/min. The concentration started from 200 nM (see the detailed results for the actual concentration in the test) and was diluted at 1:1, making a total of 5 concentrations. The dissociation phase was monitored for up to 600 s and was triggered by switching from sample solution to running buffer. The surface was regenerated by washing with a 10 mM glycine solution (pH 1.5) for 30 s at a flow rate of 30 μl/min. Bulk refractive index difference was corrected by subtracting the response obtained from the goat anti-human Fc surface. Blank injection was also subtracted (=double reference). For calculation of apparent KD and other kinetic parameters, Langmuir 1:1 model was used.

[1] = target: T2, human CD19 exon1-3-His tag protein (human, UniProt P15391 20-186, limits assumed); assay: ELISA on coated human CD19 exon 1-3-His
T2 construct: membrane-distal part of the extracellular region, made in HEK293E cells; not shown: His tag
T2 sequence (looked up): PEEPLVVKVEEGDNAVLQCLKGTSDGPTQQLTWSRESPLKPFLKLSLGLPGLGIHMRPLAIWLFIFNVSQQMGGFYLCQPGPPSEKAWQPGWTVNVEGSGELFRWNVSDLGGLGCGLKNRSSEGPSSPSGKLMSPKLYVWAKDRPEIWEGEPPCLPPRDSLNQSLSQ
Description: Human CD19-his protein (purchased from ACROBiosystems, catalog number: CD9-H52H2) was diluted with PBS to a final concentration of 4 μg/mL, and then added to a 96-well ELISA plate at 100 μl/well. The plate was sealed with a plastic film and incubated overnight at 4° C., the plate was washed 2 times with PBS the next day, and then a blocking solution [PBS+2% (w/w) BSA] was added for blocking at room temperature for 2 h. The blocking solution was poured off, and 100 nM gradiently diluted CD19 chimeric antibody or control antibody was added at 50 μl/well. After incubation at 37° C. for 2 h, the plate was washed 3 times with PBS. […] TMB substrate was added at 50 μl/well, and incubated at room temperature for 10 min, and then a stop solution (1.0 N HCl) was added at 50 μl/well. The OD450 nm values were read by an ELISA microplate reader (Multimode Plate Reader, EnSight, purchased from Perkin Elmer).
CD19 protein contains 4 exons in the extracellular region, in which exons 1-3 are located at the membrane-distal end and exon 4 is located at the membrane-proximal end. […] To identify the distribution of antigen binding epitopes of the chimeric antibodies, human CD19 exon 1-3-His (membrane-distal end) was used to coat at 2 μg/mL according to the ELISA method in example 5.1.

Kd (Human CD19-his protein): 21.7 nM
koff (Human CD19-his protein): 0.0033 s⁻¹
kon (Human CD19-his protein): 152000 M⁻¹ s⁻¹
binding result [1]: no binding (tested: 100 nM)
B1: F6.2.9 (antibody, human IgG1, V domains shown)
VH: QVQLQQSGAELVKPGASVKISCKASGYAFSSYWMNWVKQRPGKGLEWIGQIYPGDGDTNYNGKFKGKATLTADKSSSTGYMQLSSLTSEDSAVYFCARSRITSVVDWYFDVWGTGTTVTVSS
VL: QIVLSQSPAILSASPGEKVTMTCRASSSVSYMHWYQQKPGSSPKPWIYATSNLASGVPARFSGSGSGTSYSLTISRVEAEDAATYYCQQWSSNPPTFGAGTKLELK
notes: human-murine chimeric antibody, human IgG1 constant

Kd (Human CD19-his protein): 1.46 nM
koff (Human CD19-his protein): 0.000245 s⁻¹
kon (Human CD19-his protein): 167000 M⁻¹ s⁻¹
binding result [1]: no binding (tested: 100 nM)
B2: F6.12.12 (antibody, human IgG1, V domains shown)
VH: DVQLQESGPGLVKPSQSLSLTCSVTGYSITSGYYWIWIRQFPGNKLEWMGYISYDASNKYKPSLKNRISITRDTSKNQFFLKLNSVTAEDTATYFCAREDLRGYFDVWGTGTSVTVSS
VL: DIVLTQSPASLAVSLGRRATISCRASQSVSTSGFSYMHWYQQKPGQPPNLLIKYASILQSGVPARFSGSGSGTDFILNIHPVEDVDTATYYCQHSWGIPFTFGSGTKLEIK
notes: as for B1

Kd (Human CD19-his protein): 5.28 nM
koff (Human CD19-his protein): 0.00187 s⁻¹
kon (Human CD19-his protein): 355000 M⁻¹ s⁻¹
binding result [1]: no binding (tested: 100 nM)
B3: F6.5.20 (antibody, human IgG1, V domains shown)
VH: QVQLQQPGAELVKPGASVKLSCKASGYTFTSYWMQWVKQRPGQGLEWIGEIDPSDSYTNYNQKFKGKASLTVDTSSSTAYMQLSSLTSEDSAVYYCARWGLLRNYYVMDYWGQGTSVTVSS
VL: EIVLTQSPTTMAASPGEKITITCSASSSISSNYLHWYQQKPGFSPKLLIYRTSNLASGVPARFSGSGSGTSYSLTIGTMEAEDVATYYCQQGSSIPRMLTFGAGTKLELK
notes: as for B1

Kd (Human CD19-his protein): 0.247 nM
koff (Human CD19-his protein): 0.000111 s⁻¹
kon (Human CD19-his protein): 450000 M⁻¹ s⁻¹
binding result [1]: no binding (tested: 100 nM)
B4: F1-mab003 (antibody, human IgG1, V domains shown)
VH: EVQLQQSGPELVKPGASVKMSCKASGYTFTDYVMHWVRQTPGQGLEWIGYFNPYNDGTNYNEKFKVKATLTSDKSSTTAYMELSSLTSEDSAVYYCARGVYYYGRDFDYWGQGTTLTVSS
VL: DVVLTQTPLSLPVSLGDQASISCRSSQSLENSNGNSYLNWYLQKPGQSPQLLIYRVSNRFSGVLDRFSGSGSGTDFTLKISRVEAEDLGVYFCLQITHVPWTFGGGTKLEIK
notes: as for B1

Kd (Human CD19-his protein): 18.7 nM
koff (Human CD19-his protein): 0.000879 s⁻¹
kon (Human CD19-his protein): 47100 M⁻¹ s⁻¹
EC50 (read off the curve) [1]: ~0.3 nM
B5: F3.74.4 (antibody, human IgG1, V domains shown)
VH: QVQLQQSGAELVRPGASVTLSCKASGYTFTDYEMHWVKQTPVHGLEWIGGIAPETGLTTYNQKFEDKAILTADKSSRTAYMELRSLTSEDSAVYFCNPNNYGLWGTGTTVTVSS
VL: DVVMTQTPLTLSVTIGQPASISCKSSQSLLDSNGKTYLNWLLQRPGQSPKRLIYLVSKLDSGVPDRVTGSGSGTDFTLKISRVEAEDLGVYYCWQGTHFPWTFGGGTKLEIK
notes: as for B1

Kd (Human CD19-his protein): 8.47 nM
koff (Human CD19-his protein): 0.000621 s⁻¹
kon (Human CD19-his protein): 73400 M⁻¹ s⁻¹
binding result [1]: no binding (tested: 100 nM)
B6: F3.3.10 (antibody, human IgG1, V domains shown)
VH: DVQLQESGPGLAKLSQSLSLTCSVTGYSITSGYYWNWIRQFPGNKLEWMGHISYDGNNNYNPSLKNRISITRDTSKNQFFLKLNSVTTEDTATYYCARENYSNYYFDYWGQGTTLTVSS
VL: DIVLTQSPASLAVSLGQRATISCRASQSVSKSSYTYIHWYQQKPGQPPKLLIKYASILQSGVPARFSGSGSGTDFTLNFHPVEEEDTATYYCQHSWEIPYTFGGGTKLEIK
notes: as for B1

Kd (Human CD19-his protein): 6.03 nM
koff (Human CD19-his protein): 0.000465 s⁻¹
kon (Human CD19-his protein): 77000 M⁻¹ s⁻¹
binding result [1]: no binding (tested: 100 nM)
B7: F3.114.12 (antibody, human IgG1, V domains shown)
VH: DVQLQESGPGLVKPSQSLSLTCSVTGYSITSGYDWNWIRQFPGNKLEWMGYISYDGKNNYNPSLRNRISITRDTSKNQFFLKLNSVTTEDTATYYCARRDLRGYFDVWGTGTTVTVSS
VL: DIVLTQSPATLSVTPGDRVSLSCRASQSISNYLHWYQQKSHESPRLLIKYASLSISGIPSRFSGSGSGTDFTLSINSVETEDFGVYFCQQSNSWPLTFGAGTKLELK
notes: as for B1

Kd (Human CD19-his protein): 0.543 nM
koff (Human CD19-his protein): 8.47e-05 s⁻¹
kon (Human CD19-his protein): 156000 M⁻¹ s⁻¹
binding result [1]: no binding (tested: 100 nM)
B8: F3.5.1 (antibody, human IgG1, V domains shown)
VH: QAQLQQSGPELVKPGASVKISCKASGYAFSGSWMNWVQQRPGKGLEWIGRIYPGDGDTYYNGKFKDKAILTADKSSSTAYMQLSSLTSEDSAVYFCAQLRYRYVMDYWGQGTSVTVSS
VL: DIVLTQSPASLAVSLGQRATISCRASESVSIHGSHLMHWYQQKPGQPPRLLIYAASNLESGVPARFSGSGSETDFTLNIHPVEEEDAATYFCQQGIKDPYTFGGGTKLEIK
notes: as for B1

Kd (Human CD19-his protein): 1.7 nM
koff (Human CD19-his protein): 0.000143 s⁻¹
kon (Human CD19-his protein): 84300 M⁻¹ s⁻¹
binding result [1]: no binding (tested: 100 nM)
B9: F3.40.14 (antibody, human IgG1, V domains shown)
VH: B8 VH with N61S, K74T, Y101S, T112A
VL: B8 VL with S34T, K97D
notes: as for B1

Kd (Human CD19-his protein): 1.84 nM
koff (Human CD19-his protein): 0.000151 s⁻¹
kon (Human CD19-his protein): 82100 M⁻¹ s⁻¹
binding result [1]: no binding (tested: 100 nM)
B10: F5.10.6 (antibody, human IgG1, V domains shown)
VH: DVQLQESGPGLVKPSQSLSLTCSVTDYSITSGYYWTWIRQFPGNKLEWMGYISYDGSTNYNPSLKNRFSITRDTSKNQFFLKLNSVIIEDTATYYCARDRMSTTWYFDVWGTGTTVTVSS
VL: DIVLTQSPASLAVSLGQRATISCRASESVDNYGISFMHWYQQKPGQPPKLLIYRASKTESGIPARFSGSGSRTDFTLTINPVETDDVATYYCQQSNKYPRTFGGGTKVEIK
notes: as for B1

Kd (Human CD19-his protein): 3.33 nM
koff (Human CD19-his protein): 0.00081 s⁻¹
kon (Human CD19-his protein): 243000 M⁻¹ s⁻¹
binding result [1]: no binding (tested: 100 nM)
B11: F4.276.12 (antibody, human IgG1, V domains shown)
VH: EIQLQQSGPELVKPGASVKVSCKASGYAFSAYNMYWVKQSHGKSLEWIGYIDPYNGGTNYNQKFKGKATLTVDKSSSTAYMHLNSLTSEDSAVYYCARDGYEVTYWGQGTLVTVSA
VL: QIVLTQSPALMSASLGEEITLTCSASSSVTYMHWSQQKSGTSPRLLIYSTSNLASGVPSRFSGSGSGTFYSLTISSVEAEDAADYYCHQWSSYPWTFGGGTKLEIK
notes: as for B1

Kd (Human CD19-his protein): 5.67 nM
koff (Human CD19-his protein): 0.00108 s⁻¹
kon (Human CD19-his protein): 190000 M⁻¹ s⁻¹
EC50 (read off the curve) [1]: ~0.1 nM
B12: F3.109.1 (antibody, human IgG1, V domains shown)
VH: EVQLQQSGAELVRPGSSVKMSCKTSGYTFTSYGINWVKQRPGQGLEWIGYIYIGNDYTEFNEKFKGKATLTSDTSSSTAYMQLSSLTSEDSAIYFCARFYSNSDPMDYWGHGTSVTVSS
VL: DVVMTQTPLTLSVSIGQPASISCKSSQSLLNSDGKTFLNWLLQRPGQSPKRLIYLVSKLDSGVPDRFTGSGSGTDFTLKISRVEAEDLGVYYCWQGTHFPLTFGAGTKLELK
notes: as for B1

Kd (Human CD19-his protein): 0.294 nM
koff (Human CD19-his protein): 6.51e-05 s⁻¹
kon (Human CD19-his protein): 221000 M⁻¹ s⁻¹
binding result [1]: no binding (tested: 100 nM)
B13: F4.272.13 (antibody, human IgG1, V domains shown)
VH: QVQLKESGPGLVAPSQSLSITCTVSGFSLTDYGVSWIRQPPGKGLEWLGVIWGSETTFYNSALKSRLSISKDNSKSQLFLQMNSLQADDTAIYYCAKHHYYGGSFSMDYWGQGTSVTVSS
VL: DIQMTQTTSSLSASLGDRVTISCRASQDINNYLNWYQQKPDGTVKFLIYYTSRLHSGVPSRFSGSGSGTDYSLTISDLEQEDIATYFCQQGNTLPYTFGGGTKLEIK
notes: as for B1

Kd (Human CD19-his protein): 0.839 nM
koff (Human CD19-his protein): 0.000229 s⁻¹
kon (Human CD19-his protein): 273000 M⁻¹ s⁻¹
binding result [1]: no binding (tested: 100 nM)
B14: F2.15.26 (antibody, human IgG1, V domains shown)
VH: QVQLKESGPGLVAPSQSLSITCTVSGFSLTDYGVSWIRQSPGKGLEWLGVIWGSGDTYYNSVLESRLSINKDNSKNQVFLKMNSLQTDDAAMYFCAKHSYYGGSFAMDYWGQGTSVTVSS
VL: B13 VL with N30S, F46L, D77N, N92K, Y96W
notes: as for B1
